These are literature values, as cited in article PMC9256959.

This data set concerns the target AMH mature ligand mature domain (Homo sapiens) (UniProt P03971).

One may read the Kd as a measure of binding affinity in units of concentration. Consider “AMH prodomain prodomain (from UniProt P03971)”, for which the equilibrium dissociation constant (Kd) is 0.4 pM.
